Measurements reported in article PMC9459030 (Journal of Ginseng Research, 2021).
Where no end group is shown, it is not given here. [ ]: non-standard residue; d: D form. pS = N[C@@H](COP(=O)(O)O)C(=O)O

Target: T1, 14-3-3 ζ protein (UniProt P63104 1-245)
T1 sequence (looked up): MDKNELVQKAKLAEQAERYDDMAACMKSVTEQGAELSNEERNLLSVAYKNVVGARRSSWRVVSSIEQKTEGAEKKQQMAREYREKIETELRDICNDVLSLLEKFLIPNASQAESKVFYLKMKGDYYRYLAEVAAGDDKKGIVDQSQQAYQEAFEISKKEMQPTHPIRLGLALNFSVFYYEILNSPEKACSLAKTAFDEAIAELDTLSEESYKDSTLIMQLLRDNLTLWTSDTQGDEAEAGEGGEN
Assay: BLI

GRPRTT[pS]FAE [p-Ser9 GSK 3β polypeptide (Gly3-pSer9-Glu12)]
Kd: 46.8 µM | koff: 0.0185 s⁻¹ | kon: 579 M⁻¹ s⁻¹
